# In patent publication US20260242759A1, “GQ/11 Protein Peptidomimetics” (Vrije Universiteit Brussel, priority 2022, published 2026):
# Positions of bridges follow the written chain, without caps; N, C: chain ends. Non-standard residues stand in square brackets, D forms with d. Residues, ends and D or L forms follow the SMILES beside them. Triazole bridges read from a SMILES are 1,4-linked. Lys(N3) = [N-]=[N+]=NCCCC[C@H](N)C(=O)O; Cha = N[C@@H](CC1CCCCC1)C(=O)O; Pra = C#CC[C@H](N)C(=O)O
# T1: full-length human muscarinic 1 receptor with a FLAG tag at the N-terminus (human, UniProt P11229 1-460)
# T1 sequence: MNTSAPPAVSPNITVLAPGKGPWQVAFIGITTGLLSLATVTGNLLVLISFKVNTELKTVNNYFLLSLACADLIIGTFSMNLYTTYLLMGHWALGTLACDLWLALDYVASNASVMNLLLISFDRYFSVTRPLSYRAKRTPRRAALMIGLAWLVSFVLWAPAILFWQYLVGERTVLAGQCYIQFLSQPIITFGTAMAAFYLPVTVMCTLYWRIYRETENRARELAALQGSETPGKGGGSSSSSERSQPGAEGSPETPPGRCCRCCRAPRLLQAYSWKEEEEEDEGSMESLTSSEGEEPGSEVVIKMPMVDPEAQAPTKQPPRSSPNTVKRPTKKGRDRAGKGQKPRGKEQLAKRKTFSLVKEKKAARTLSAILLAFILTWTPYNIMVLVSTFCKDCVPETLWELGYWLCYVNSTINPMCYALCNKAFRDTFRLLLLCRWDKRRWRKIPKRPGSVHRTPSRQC
# B1: SBL-GQ-13 (peptide)
# peptide: H-KKKFA[Pra]VKD[Lys(N3)]ILQLNLKEYNLV-OH
# modifications: triazole 6-10
# B2: SBL-GQ-10 (peptide)
# peptide: Ac-KKKFNDCKDIILQMNLREYN[Cha]V-OH
# SMILES: CC[C@H](C)[C@H](NC(=O)[C@H](CC(=O)O)NC(=O)[C@H](CCCCN)NC(=O)[C@H](CS)NC(=O)[C@H](CC(=O)O)NC(=O)[C@H](CC(N)=O)NC(=O)[C@H](Cc1ccccc1)NC(=O)[C@H](CCCCN)NC(=O)[C@H](CCCCN)NC(=O)[C@H](CCCCN)NC(C)=O)C(=O)N[C@H](C(=O)N[C@@H](CC(C)C)C(=O)N[C@@H](CCC(N)=O)C(=O)N[C@@H](CCSC)C(=O)N[C@@H](CC(N)=O)C(=O)N[C@@H](CC(C)C)C(=O)N[C@@H](CCCNC(=N)N)C(=O)N[C@@H](CCC(=O)O)C(=O)N[C@@H](Cc1ccc(O)cc1)C(=O)N[C@@H](CC(N)=O)C(=O)N[C@@H](CC1CCCCC1)C(=O)N[C@H](C(=O)O)C(C)C)[C@@H](C)CC
# B3: SBL-GQ-14 (peptide)
# peptide: H-RRRRFA[Pra]VKD[Lys(N3)]ILQLNLKEYNLV-OH
# modifications: triazole 7-11
# B4: SBL-GQ-02 (peptide)
# peptide: Ac-KKKFAAVKDTILQLNLKEYNLV-OH
# B5: SBL-GQ-08 (peptide)
# peptide: Ac-KKKFNDCKDIILQMNLREYNLV-OH
# Legend:
# [1] = biological target: T2, human ghrelin receptor (GHSR) (Homo sapiens, UniProt Q92847, C146S/C304S); experiment: Bimane fluorescence assay on purified ghrelin receptor in nanodiscs; type: biochemical; conditions: for conformational change in the receptor: in presence of JMV1843
# T2 construct: integrin α5 fragment (N); polyhistidine tag (C); made in house; host or cells: E. coli BL21(DE3)
# T2 sequence (Q92847 whole entry C146S/C304S, the tested form may be a part): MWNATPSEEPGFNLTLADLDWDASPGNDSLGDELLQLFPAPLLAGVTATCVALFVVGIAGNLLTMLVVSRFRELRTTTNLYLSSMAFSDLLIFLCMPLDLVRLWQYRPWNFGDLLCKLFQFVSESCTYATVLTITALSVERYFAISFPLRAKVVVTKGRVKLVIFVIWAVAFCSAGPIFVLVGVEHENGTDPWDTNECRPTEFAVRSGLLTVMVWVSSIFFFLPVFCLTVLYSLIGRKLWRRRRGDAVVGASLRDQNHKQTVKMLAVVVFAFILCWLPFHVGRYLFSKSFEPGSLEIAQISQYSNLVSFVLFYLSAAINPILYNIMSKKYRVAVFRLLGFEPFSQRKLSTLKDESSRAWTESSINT
# Source text: Another assay that can be used to analyse conformational changes associated with GPCR activation and/or to identify G protein peptidomimetics that are capable of stabilizing a GPCR in an active conformational state is the bimane fluorescence assay or bimane assay. This assay works through labelling of a cysteine residue in the lower part of the TM6 of a GPCR with a bimane-fluorophore (monobromobimane (MB)). Binding of an agonist to the GPCR causes a conformational change and outward movement of TM6 that places bimane in a more solved-exposed position, which will alter its maximum emission wavelength. In particular, increasing concentrations of agonist result in a concentration-dependent red-shift of the maximum emission wavelength (λmax) of the bimane-fluorophore probe. In the presence of a G protein or an active state stabilizing G protein peptidomimetic λmax may increase further. For example, a bimane labelled ghrelin receptor (such as a cysmin mutant (i.e. mutant with minimal cysteines) of human ghrelin receptor (also referred to herein as growth hormone secretagogue receptor (GHSR) (e.g. the mutant as described in Damian et al. (2021) wherein monobromobimane (MB) fluorescent probe is attached to Cys^255) and ghrelin receptor agonist JMV1843 may be used.
# The bimane fluorescence assays on the ghrelin receptor were performed as described in Damian et al. (2021. Nat. Commun. 12:1-15). Briefly, E. coli bacteria (BL21(DE3)) were transformed with a vector encoding the human ghrelin receptor with an integrin α5 fragment at the N-terminus and a polyhistidine tag at the C-terminus. The receptors were then purified and reconstituted into lipidated nanodiscs. The monobromobimane labeling was performed by incubating the receptors, with a unique reactive cysteine at position 255, during 16 h in the dark at 4° C. and in the presence of 0.1 mM tris(2-carboxyethyl)phosphine (TCEO). The reaction was terminated with 5 mM L-cysteine and unreacted monobromobimane was removed using a Zeba™ Spin desalting column.
# For the fluorescence assay, the labeled receptor was incubated during 2 h at 20° C. (0.2 μM final concentration), in the absence or presence of the full agonist JMV1843 (20 μM) and in the absence or presence of either the peptidomimetics at varying molar ratios or the purified Gαqβ1γ2 heterotrimer, at a 1:5 receptor-to-G protein molar ratio. Afterwards, the fluorescence experiments were performed on a Horiba Fluoromax-4 TCSP spectrofluorimeter. For each scan, the excitation wavelength (λexc) was set at 380 nm and emission was collected between 440 nm and 520 nm.
# The bimane assay is used on GPCRs to detect conformational changes associated with receptor activation. This assay functions through the labelling of a cysteine, which is one of the least frequently occurring amino acids in proteins. Additionally, the majority of the extracellular cysteines form disulfide bonds, which, together with the transmembrane cysteines, are inert to thiol-reactive reagents. Additionally, some of the intracellular cysteines in the C-terminal tail may carry post-translational modifications which reduces the number of reactive cysteines in the receptor (Tian et al. 2017. Chem. Rev. 117:186-245). For GHSR, the remaining reactive cysteine residues C146 (ICL2) and C304 (extracellular end of TM7) were replaced by serines (cysmin mutant, i.e. mutant with minimal cysteines), to allow the monobromobimane (MB) fluorescent probe to be specifically attached to Cys255 in the lower part of TM6 (FIG. 5a) (Damian et al. 2021). In this assay, bimane is chosen because of its small size and sensitivity to the polarity of its environment (Yao et al. 2006. Nat Chem. Biol. 2:417-422). Binding of a ligand to the receptor, causes a conformational change and outward movement of TM6 that places bimane in a more solvent-exposed position, which alters its maximum emission wavelength. […]
# [2] = biological target: ghrelin receptor overexpressed on HEK293 cells (UniProt Q92847 1-366, limits assumed); experiment: cell-based or functional assay
# Sequence of ghrelin receptor overexpressed on HEK293 cells (Q92847 whole entry): as the sequence (Q92847 whole entry C146S/C304S, the tested form may be a part) above, with S146C, S304C counted along it
# [3] = biological target: T1, full-length human muscarinic 1 receptor …; experiment: cell-based or functional assay
molecule,measurement,setting,value
Ac-FAAVKDTILQLNLKEYNLV-OH [SBL-GQ-01],conformational change in the receptor,[1]; bimane labeled GHSR,not able to induce a conformational change
"CC(C)(N)C(=O)N[C@H](Cc1c[nH]c2ccccc12)C(=O)N[C@H](Cc1c[nH]c2ccccc12)NC=O [JMV1843, reference compound]",maximum emission wavelength of bimane,"[1]; agonist JMV1843 alone, in the absence of the Gq protein",~476 nm
CC[C@H](C)[C@H](NC(=O)[C@@H]1CCCCn2cc(nn2)C[C@H](NC(=O)[C@H](C)NC(=O)[C@H](Cc2ccccc2)NC(=O)[C@H](CCCCN)NC(=O)[C@H](CCCCN)NC(=O)[C@H](CCCCN)NC(C)=O)C(=O)N[C@@H](C(C)C)C(=O)N[C@@H](CCCCN)C(=O)N[C@@H](CC(=O)O)C(=O)N1)C(=O)N[C@@H](CC(C)C)C(=O)N[C@@H](CCC(N)=O)C(=O)N[C@@H](CC(C)C)C(=O)N[C@@H](CC(N)=O)C(=O)N[C@@H](CC(C)C)C(=O)N[C@@H](CCCCN)C(=O)N[C@@H](CCC(=O)O)C(=O)N[C@@H](Cc1ccc(O)cc1)C(=O)N[C@@H](CC(N)=O)C(=O)N[C@@H](CC(C)C)C(=O)N[C@H](C(=O)O)C(C)C [SBL-GQ-05] (Ac-KKKFA[Pra]VKD[Lys(N3)]ILQLNLKEYNLV-OH; triazole 6-10),Emax,"[1]; highest peptide concentrations (GHSR:peptide 1:50, 1:100), with JMV1843, read-out: effect normalized to the maximal effect of the Gq protein",~90%
Gq protein: purified Gαqβ1γ2 heterotrimer used as reference in the bimane assay,maximum emission wavelength of bimane,"[1]; bimane labeled GHSR, in presence of full agonist JMV1843 (20 μM)",~480.5 nm
CC[C@H](C)[C@H](NC(=O)[C@@H](NC(=O)[C@H](CC(=O)O)NC(=O)[C@H](CCCCN)NC(=O)[C@@H](NC(=O)[C@H](C)NC(=O)[C@H](C)NC(=O)[C@H](Cc1ccccc1)NC(C)=O)C(C)C)[C@@H](C)O)C(=O)N[C@@H](CC(C)C)C(=O)N[C@@H](CCC(N)=O)C(=O)N[C@@H](CC(C)C)C(=O)N[C@@H](CC(N)=O)C(=O)N[C@@H](CC(C)C)C(=O)N[C@@H](CCCCN)C(=O)N[C@@H](CCC(=O)O)C(=O)N[C@@H](Cc1ccc(O)cc1)C(=O)N[C@@H](CC(N)=O)C(=O)N[C@@H](CC1CCCCC1)C(=O)N[C@H](C(=O)O)C(C)C [SBL-GQ-03] (Ac-FAAVKDTILQLNLKEYN[Cha]V-OH),conformational change in the receptor,[1]; bimane labeled GHSR,not able to induce a conformational change
B1,"EC50 (M) of the MK0677 agonist, IP-One Gq assay, peptidomimetic at 10 µM, n = 1",[2],4.42e-10 M
same,"EC50 (M) of the MK0677 agonist, IP-One Gq assay, peptidomimetic at 10 µM, n = 2",[2],1.01e-10 M
same,"EC50 (M) of the MK0677 agonist, IP-One Gq assay, peptidomimetic at 10 µM, n = 3",[2],1.31e-10 M
B2,"IC50 (µM) of the agonist acetylcholine chloride for the M1 receptor in the presence of the peptidomimetic, RLA",[3],409 µM
same,"Shift (IC50 ratio without/with peptidomimetic), RLA",[3],2
B3,"EC50 (M) of the MK0677 agonist, IP-One Gq assay, peptidomimetic at 10 µM, n = 1",[2],6.96e-10 M
same,"EC50 (M) of the MK0677 agonist, IP-One Gq assay, peptidomimetic at 10 µM, n = 2",[2],1.01e-10 M
same,"EC50 (M) of the MK0677 agonist, IP-One Gq assay, peptidomimetic at 10 µM, n = 3",[2],1.87e-10 M
B4,"IC50 (µM) of the agonist acetylcholine chloride for the M1 receptor in the presence of the peptidomimetic, RLA",[3],474 µM
same,"Shift (IC50 ratio without/with peptidomimetic), RLA",[3],2
B5,"IC50 (µM) of the agonist acetylcholine chloride for the M1 receptor in the presence of the peptidomimetic, RLA",[3],413 µM
same,"Shift (IC50 ratio without/with peptidomimetic), RLA",[3],2
